This is an account of results in US20100196361A1, “Method of inhibition of vascular development using an antibody” (DYAX CORP., priority 2003, published 2010).

One test has as its target T1, human Tie1 Fc (Homo sapiens, UniProt P35590).
T1 construct: selected against the Tie1 extracellular domain fused to human Fc or to a histidine purification tag
T1 sequence (P35590 22-759 limits assumed): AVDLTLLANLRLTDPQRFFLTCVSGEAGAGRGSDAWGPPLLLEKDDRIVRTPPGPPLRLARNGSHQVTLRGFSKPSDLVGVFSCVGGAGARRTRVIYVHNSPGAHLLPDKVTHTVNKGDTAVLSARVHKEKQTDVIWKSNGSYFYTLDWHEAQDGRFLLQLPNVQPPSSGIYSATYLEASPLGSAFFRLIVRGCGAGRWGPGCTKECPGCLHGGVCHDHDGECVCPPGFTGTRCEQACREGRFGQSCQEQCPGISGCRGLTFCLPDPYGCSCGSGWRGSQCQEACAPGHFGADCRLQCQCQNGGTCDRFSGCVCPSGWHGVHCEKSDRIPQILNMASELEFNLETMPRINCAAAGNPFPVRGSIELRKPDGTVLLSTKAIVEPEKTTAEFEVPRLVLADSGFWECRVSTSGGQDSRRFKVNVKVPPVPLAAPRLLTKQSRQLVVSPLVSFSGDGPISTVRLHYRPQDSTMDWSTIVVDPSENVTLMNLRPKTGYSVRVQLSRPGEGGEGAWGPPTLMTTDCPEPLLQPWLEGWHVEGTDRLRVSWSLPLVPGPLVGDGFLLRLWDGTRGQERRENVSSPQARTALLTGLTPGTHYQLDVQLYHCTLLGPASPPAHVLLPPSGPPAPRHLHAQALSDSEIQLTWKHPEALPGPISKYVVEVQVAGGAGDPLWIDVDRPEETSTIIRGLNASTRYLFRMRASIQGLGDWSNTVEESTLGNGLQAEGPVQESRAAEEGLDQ
Kind of test: BIAcore, Fab over Tie1/Fc coated on CM5 chip. Particulars: Fab analyte. In kind it is binding. From the text: To evaluate if the binding behaviour had been affected in any way by the conversion of the somatic mutations back to germline residues, the parental and the germlined E3b antibodies were produced and tested in Biacore as Fab fragments. Here, by contrast to what was done for the IgGs (see Example 28), and in order to measure a monovalent interaction, the Fabs were run over the antigen directly coated onto the surface.
Recombinant human Tie1/Fc was coated on a CM5 chip. The surface of the chip was first activated with a 7-minute pulse of 0.05 M NHS/0.2 M EDC, then Tie1/Fc (2 μg/ml in 10 mM sodium acetate, pH 4.0) was run over the chip surface until 750 RUs were coated on the surface. All flow cells were subsequently deactivated with a 7-minute pulse of 1 M ethanolamine hydrochloride, pH 8.5. All further experiments were performed in HBS buffer.
The parental and the germlined E3b Fabs were prepared. A series of dilution (50, 25, 12.5, 6.25 and 3.125 nM) was prepared in HBS buffer. Samples were injected at 30 μl/min for 5.3 minutes using the KINJECT™ program. This was followed by a 10-minute dissociation phase, and the remaining Fab was stripped from the surface with a single 18-sec injection of 50 mM NaOH/1 M NaCl.
Sensorgrams were analyzed using the simultaneous ka/kd fitting program from the BIAEVALUATION™ software 3.1 assuming a 1:1 model.
On the technique in general: Surface plasmon resonance follows binding to a sensor surface in real time, without labels.

Test [1] relates to LEII lung mouse endothelial cell line. As to the kind of experiment: Tube formation by mouse endothelial cell line LEII on […]. In kind it is cell-based. The conditions noted are these: LEII cells on MATRIGEL, 16 to 18 hours. As for the experimental part:
In order to assess mouse Tie1 cross-reactivity and biological activity on mouse Tie1, both E3 and germlined E3 were evaluated for their ability to inhibit tube formation in vitro using mouse endothelial cell line (LEII).
LEII lung mouse endothelial cell line (ATCC) was cultured in a T-25 flask in MEM medium with GLUTAMAX™ (Life Technologies Ltd., Paisley, Scotland) supplemented with 10% FCS, and 1% penicillin/streptomycin. During culturing, the cells were kept in a proliferative state by culturing them in a split ratio 1:5 at an approximate density of the monolayer of about 80%. LEII monolayers were treated with trypsin/EDTA (500 μl/dish) at 37° C. for 3 min. Trypsin activity was stopped by adding 3 volumes of complete MEM medium. The cells were carefully scraped, separated by repeated pipetting, and finally washed with PBS.LEII cells were seeded in their culture medium (20-40×103/50 μl/well of a 96-well plate) on a basement membrane (BIOCOAT™ Angiogenesis System; Becton Dickinson). […] The total length of the tube network was then quantified at 40× magnification by the METAVUE™ Software (Universal Imaging Corporation). Results from triplicate wells were expressed as mean vessel area per field ±SEM (relative units). […]

B1: parental E3 Fab: soluble Fab fragment of the parental E3 anti-Tie1 antibody (antibody, V domains shown)
VH: EVQLLESGGGLVQPGGSLRLSCAASGFTFSMYGMVWVRQAPGKGLEWVSVISPSGGNTGYADSVKGRFTISRDNSKNTLYLQVNSLRAEDTAVYYCARAPRGYSYGYYYWGQGTLVTVSSASTKGPSVFPLAPSSKSTSGG
VL: DIQMTQSPLSLSASVGDRVTITCRASQGIGHYLAWYQQKPGKVPKLLIYTASTLQSGVPSRFSGSGSGTDFTLTINSLQPEDVATYYCQQFNSYPHTFGQGTRLDIK
Take B1: the koff (usually the rate constant with which the complex falls apart) with human Tie1 Fc (Human Tie1 Fc coated on CM5) was found to be 0.00105 s⁻¹. Besides, the kon (in general, a measure of how fast the partners come together) with human Tie1 Fc (Human Tie1 Fc coated on CM5, 750 RU) was 88100 M⁻¹ s⁻¹.

B2: DX-2210: E3 antibody in which the light chain has been germlined (antibody, V domains shown)
VH: EVQLLESGGGLVQPGGSLRLSCAASGFTFSMYGMVWVRQAPGKGLEWVSVISPSGGNTGYADSVKGRFTISRDNSKNTLYLQVNSLRAEDTAVYYCARAPRGYSYGYYYWGQGTLVTVSSASTKGPSVFPLAPSSKSTSGG
VL: DIQMTQSPSSLSASVGDRVTITCRASQGIGHYLAWYQQKPGKVPKLLIYTASTLQSGVPSRFSGSGSGTDFTLTISSLQPEDVATYYCQQFNSYPHTFGQGTRLEIK
B2: the “inhibition of tube formation in mouse endothelial cells” value in test [1] is “potent inhibitor of tube formation in mouse endothelial cells”.
